Positions count from the first letter of the chain named. Names and notes keep the numbering of the source.
T1: α-fructosyl-valyl-histidyl-leucyl-threonyl-proryl-glutamic acid
T1 chain: VHLTPE

B1: ketoamine oxidase derived from Neocosmospora vasinfecta (protein)
chain: MTTPRKETTVLIIGGGGTIGSSTALHLLRAGYTPSNITVLDTYPIPSAQSAGNDLNKIMGIRLRNKVDLQLSLEARDMWRNDALFRPFFHNTGRLDCESSAEGVEGLRREYQKLVEAGVGLEETHEWLDSEEAILEKAPLLQREEIEGWKAIWSEEGGWLAAAKAINAIGEELQRQGVRFGFGGAGSFKRPLFADDGTTCIGVETVDGTQYHADKVVLAAGAWSPALVDLEEQCCSKAWVYAHMQLTPEEAAVYKGCPVVYHGDVGFFFEPNENGVIKVCDEFPGFTRFKQHQPYGAPAPKPVSVPRSHAKHPTDTYPDASEESIKRAVSTFLPRFKDKPLFNRALCWCTDTADSALLICEHPRWKNFILATGDSGHSFKLLPIIGKHVVELVEGRLADDLAEAWRWRPGQGDARKSIRAAPAKDLADMPGWKHDQDSESR
B2: NvFX-62D/106K/110L (protein)
chain: B1 chain with R62D, G106K, E110L
B3: fructosyl amino acid oxidase derived from Aspergillus nidulans resulting from substitution of serine at position 59 with glycine (protein)
chain: MTPRANTKIIVVGGGGTMGSSTALHLLRAGYTPSNITVLDTCPIPSAQSAGYDLNKIMGIRLRNKPDLQLSLEALDMWKNDPLFKPFFHNVGMIDVSSTEEGIEGLRKKYQSLLDAGIGLEKTNFMLESEDEILAKAPHFTQEQIKGWKGLFCGDGGWLAAAKAINAIGQFLKEQGVKFGFGGAGTFKKPLFADAHEKTCIGVETVDGTKYYADKVVLAAGAWSSTLVDLEEQCVSKAWVFAHIQLTPAEAAAYKNTPVIYDGDYGFFFEPNENGIIKVCDEFPGFTHFKMHQPYGSPAPKPISVPRSHAKHPTDTYPHASEVTIKKAINRFLPRFNDKELFNRAMCWCTDTADANLLVCEHPRWKGFYLATGDSGHSFKLLPNIGKHVVELLEERLESVFKDAWRWRPGSGDALKSRRAAPAKDLADMPGWRNEAKM
B4: AnFX-61D/62H/101K/105K/109L/112K/355S (protein)
chain: B3 chain with R61D, L62H, E101K, G105K, K109L, S112K, A355S
B5: AnFX-61D/105K/109L (protein)
chain: B3 chain with R61D, G105K, K109L
B6: amadoriase exhibiting 95% sequence identity with ketoamine oxidase derived from Curvularia clavata (protein)
chain: MAPSRANTSVIVVGGGGTIGSSTALHLVRSGYTPSNITVLDAYPIPSSQSAGNDLNKIMGIRLRNKVDLQLSLEARQMWREDDLFKEYFHNTGRLDCAHGEEGLADLRQAYQALLDANAGLEETTEWLDSEDEILKKMPLLSRDQIKGWKAVYSQDGGWLAAAKAINAIGEYLRAQGVKFGFGGAGSFKQPLLAEGVCIGVETVDGTRYYADKVVLAAGAWSPTLVELHEQCVSKAWVYGHIQLTPEEAAEYKNSPVVYNGDVGFFFEPNEHGVIKVCDEFPGFTRFKMHQPFGAKAPKRISVPRSHAKHPTDTIPDASEKSIRKAIATFLPKFTEKELFNRHLCWCTDTADAALLICEHPEWKNFVLATGDSGHSFKLLPNIGKHVVELLEGTLADDLAHAWRWRPGSGDALKSRRSAPAKDLADMPGWKHDDVVKSKL
B7: Cc95FX-62D/63H/106K/110L/113K/353S (protein)
chain: B6 chain with R62D, L63H, D106K, A110L, A113K, A353S
B8: CFP-T7-H28 (protein)
chain: MTSNRADTRVIVVGGGGTIGSSTALHLVRSGYAPANITVLDTFEIPSAQSAGHDLNKIMGIDHRNKVDLQMSLEARQMWKEDELFQPFFHNTGRMDCEHTPKGIEKLKKLYQKLHDAGAGLEKTHAWLDNEDEILSKMPLLQRDQIQGWKAIWSQDGGWLAAAKAINAIGQFLKERGVKFGFGGAGSFKQPLFDDEGTTCIGVETADGTKYYADKVVLAAGAWSPTLVDLEDQCCSKAWVYAHIQLTPEEAAEYKGVPVVYNGEFGFFFEPDEFGVIKVCDEFPGFSRFKEHQPYGAPSPKRISVPRSHAKHPTDTYPDASEVSIKKAIATFLPRFQDKELFNRALCWCTDTADAALLMCEHPKWKNFILATGDSGHSFKILPNVGKYVVELIEGRLPEEMAYQWRWRPGGDALKSRRAAPPKDLADMPGWKHDPKL
B9: CFP-T7-H3 (protein)
chain: B8 chain with D62A, H63L, K102E, K106D, L110F, K113A
B10: CFP-T7-H36 (protein)
chain: B8 chain with D68N, A355S
B11: CFP-T7-H29 (protein)
chain: B8 chain with K102E, A419K
B12: CFP-T7-H37 (protein)
chain: B8 chain with D68N, A355S, A356T
B13: fructosyl peptide oxidase derived from Eupenicillium terrenum (protein)
chain: MAHSRASTKVVVVGGGGTIGSSTALHLIRSGYTPSNITVLDVYKTPSLQSAGHDLNKIMGIRLRNGPDLQLSLESLDMWQNDELFKPFFHQVGMIDCSSSKEGIENLRRKYQTLLDAGIGLEKTNVWLESEDEILAKAPNFTREQVKGWKGLFCTDGGWLAAAKAINAIGIFLQDKGVKFGFGDAGTFQQPLFAADGKTCIGLETTDGTKYFADKVVLAAGAWSPTLVDLEDQCVSKAWVFAHIQLTPKEADAYKNVPVVYDGEYGFFFEPDEYGVIKVCDEFPGFSRFKLHQPYGAASPKMISVPRSHAKHPTDTYPDASEVTIRKAIARFLPEFKDKELFNRTMCWCTDTADANLLICEHPKWKNFILATGDSGHSFKLLPNIGKYVVELLEGSLSQEMAGAWRWRPGGDALRSRRGAPAKDLAEMPGWKHDAHL
B14: EFP-T5-R62D (protein)
chain: B13 chain with R62D
B15: fructosyl peptide oxidase derived from Phaeosphaeria nodorum (protein)
chain: MAPSRANTSVIVVGGGGTIGSSTALHLVRSGYTPSNVTVLDAYPIPSSQSAGNDLNKIMGVSLRNPVDLQLALEARQMWNEDELFKKFFHNTGRLDCAHGEKDIADLKSGYQALVDAGLDATNEWLDSEDEILKRMPLLSRDQIKGWKAIFSKDGGWLAAAKAINAVGEYLRDQGVRFGFYGAGSFKAPLLAEGVCIGVETVDGTRYYADKVVLAAGAWSPTLVELHEQCVSKAWVYGHIQLTPEEAARYKNSPVVYNGDVGFFFEPNEHGVIKVCDEFPGFTRFKMHQPFGAKAPKRISVPRSHAKHPTDTIPDASDVSIRRAIATFMPQFKNKKMFNQAMCWCTDTADAALLICEHPEWKNFVLATGDSGHSFKLLPNIGKHVVELLEGTLADDLAHAWRWRPGSGDALKSRRSAPAKDLADMPGWNHDKPRANL
B16: PnFX-62D/63H/106K/110L/113K/351S (protein)
chain: B15 chain with S62D, L63H, D106K, G110L, A113K, A351S
B17: PnFX-62D/106K/110L/113K (protein)
chain: B15 chain with S62D, D106K, G110L, A113K
B18: fructosyl amino acid oxidase derived from Aspergillus oryzae RIB40 (protein)
chain: MTVTKSSSILIIGAGTWGASTALHLGRRGYTNVTVLDPYTVPSAISAGNDVNKIISSGQYSNKKDEIEVNEILAEEAFKGWTTDPLFKPYYHDTGVVMSACSSAGLDRLGIRVRPEEEPDVSEVTKPEHFRQLAPAVLKGNFPGWRGYHIRSNAGWAHARNALVAAIREAEKLGVKFVTGTQGRVITLIFENNDVKGAVTADGKIWRAEQTVLCAGANAAQFLDFKDQLRPTAWTLAHIRLKPEERALYKNLPVIFNIEKGFFFEPDEERGEIKICDEHPGYTNMVKSADGHLTSLPFEKTQIPKESEARVRALLSETMPQLADRPFSFARVCWCADTANREFIIDRHPEHPSLVLGCGASGRGFKYLPSIGNLIVDAIEDKVPEKVHKLTRWSPDIAVDRKWRDTLGRFGGPNRVMDFHDVKEWTNVQNKDTAKL

Target: T1, α-fructosyl-valyl-histidyl-leucyl-threon …
Conditions: for αF6P oxidation activity: scale: relative value

| Protein | Specific activity (U/mg), 1 mM αF6P | also measured |
| --- | --- | --- |
| B1 | 0 U/mg | – |
| B2 | 0.003 U/mg | – |
| B3 | 0 U/mg | – |
| B4 | 0.283 U/mg | – |
| B5 | 0.106 U/mg | – |
| B6 | – | αF6P oxidation activity: 0 |
| B7 | – | αF6P oxidation activity: 237 |
| B8 | – | αF6P oxidation activity ratio (relative value (CFP-T7-H26 = 100)): 117; αF6P oxidation activity ratio (relative value (CFP-T7-H28 = 100)): 100; αF6P oxidation activity: 134 |
| B9 | – | αF6P oxidation activity: 0.0298 |
| B10 | 4.65 U/mg | – |
| B11 | – | αF6P oxidation activity ratio (relative value (CFP-T7-H26 = 100)): 102; αF6P oxidation activity: 111 |
| B12 | 7.19 U/mg | – |
| B13 | 0 U/mg | – |
| B14 | 0.0043 U/mg | – |
| B15 | 0.0091 U/mg | – |
| B16 | 0.667 U/mg | – |
| B17 | 0.125 U/mg | specific activity on αF6P, fold over PnFX before mutation: specific activity on αF6P was elevated by 13.7 fold |
| B18 | 0.0022 U/mg | – |
